For 45 variants, ligation selection enrichment results are on record in the supplement of paper PMC10219994.

± gives the standard deviation of the averaged measurements.

B1: library; a variant is named by its letters at N, in order (parent)
chain: GAGACCGCAACTGAAAAGTTGTGGNNNNNATAGTGAGTCGCTGCCTGCAAAGACACAACT

Variants of B1 are the subject of the data set. Put plainly: ligation selection enrichment (abundance after / before one-round selection) (fold); higher = more template-directed ligation activity. As to conditions: with T7Psub CACGGAUGCUAAUACGACUCACUAUA; MgCl2 25 mM; 42 °C; 4 h; pH 8.5. The gist of the method: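 RNA ligase library with five randomized core positions (0.75 μM, T7-transcribed) was reacted with RNA substrate (6 μM) in 50 mM EPPS pH 8.5, 25 mM MgCl2 at 42 °C for 4 h, in two independent experiments. Ligated products were PAGE-purified, reverse transcribed, barcoded by PCR and MiSeq-sequenced. Reads with quality score ≥30 at all randomized positions were counted. Enrichment was abundance after ligation divided by abundance before ligation.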
With GAGACCGCAACTGAAAAGTTGTGGAGCGGATAGTGAGTCGCTGCCTGCAAAGACACAACT, the ligation selection enrichment came out at 0.213 ± 0.012.

With GAGACCGCAACTGAAAAGTTGTGGAGCGAATAGTGAGTCGCTGCCTGCAAAGACACAACT, the ligation selection enrichment was 2.74 ± 0.25. Turning to GAGACCGCAACTGAAAAGTTGTGGCGAGCATAGTGAGTCGCTGCCTGCAAAGACACAACT, the ligation selection enrichment amounted to 0.246 ± 0.036. Under GAGACCGCAACTGAAAAGTTGTGGCGAGGATAGTGAGTCGCTGCCTGCAAAGACACAACT stands 0.422 ± 0.029. Take GAGACCGCAACTGAAAAGTTGTGGCGAGTATAGTGAGTCGCTGCCTGCAAAGACACAACT: the ligation selection enrichment stood at 1.09 ± 0.25.

For the variant GAGACCGCAACTGAAAAGTTGTGGTGCACATAGTGAGTCGCTGCCTGCAAAGACACAACT, the ligation selection enrichment stood at 0.235 ± 0.059. With GAGACCGCAACTGAAAAGTTGTGGTGCATATAGTGAGTCGCTGCCTGCAAAGACACAACT, the ligation selection enrichment turned out to be 3.27 ± 0.44. As to GAGACCGCAACTGAAAAGTTGTGGTGCAAATAGTGAGTCGCTGCCTGCAAAGACACAACT, the ligation selection enrichment was determined as 0.289 ± 0.065. GAGACCGCAACTGAAAAGTTGTGGTGCAGATAGTGAGTCGCTGCCTGCAAAGACACAACT: the ligation selection enrichment was 0.216 ± 0.0033. Consider GAGACCGCAACTGAAAAGTTGTGGCGCTGATAGTGAGTCGCTGCCTGCAAAGACACAACT, for which the ligation selection enrichment was 0.141 ± 0.026.

With GAGACCGCAACTGAAAAGTTGTGGCGCTCATAGTGAGTCGCTGCCTGCAAAGACACAACT, the ligation selection enrichment came out at 0.0791 ± 0.025. For GAGACCGCAACTGAAAAGTTGTGGCGCTAATAGTGAGTCGCTGCCTGCAAAGACACAACT the value was 0.127 ± 0.032; for GAGACCGCAACTGAAAAGTTGTGGGGCCTATAGTGAGTCGCTGCCTGCAAAGACACAACT, 0.408 ± 0.092; for GAGACCGCAACTGAAAAGTTGTGGGGCCAATAGTGAGTCGCTGCCTGCAAAGACACAACT, 0.241 ± 0.083. Consider GAGACCGCAACTGAAAAGTTGTGGGGCCGATAGTGAGTCGCTGCCTGCAAAGACACAACT, for which the ligation selection enrichment came out at 0.746 ± 0.042. Consider GAGACCGCAACTGAAAAGTTGTGGGGCCCATAGTGAGTCGCTGCCTGCAAAGACACAACT, for which the ligation selection enrichment came out at 0.192 ± 0.0055. As for GAGACCGCAACTGAAAAGTTGTGGAGCTCATAGTGAGTCGCTGCCTGCAAAGACACAACT, the ligation selection enrichment is 0.104 ± 0.0069.

Take GAGACCGCAACTGAAAAGTTGTGGAGCTGATAGTGAGTCGCTGCCTGCAAAGACACAACT: the ligation selection enrichment was determined as 0.198 ± 0.0052. In the case of GAGACCGCAACTGAAAAGTTGTGGAGCTAATAGTGAGTCGCTGCCTGCAAAGACACAACT, the ligation selection enrichment stood at 0.209 ± 0.011. Consider GAGACCGCAACTGAAAAGTTGTGGCGCACATAGTGAGTCGCTGCCTGCAAAGACACAACT, for which the ligation selection enrichment was 0.339 ± 0.028. In the case of GAGACCGCAACTGAAAAGTTGTGGCGCAGATAGTGAGTCGCTGCCTGCAAAGACACAACT, the ligation selection enrichment is 0.2266 ± 0.0013. Take GAGACCGCAACTGAAAAGTTGTGGCGCAAATAGTGAGTCGCTGCCTGCAAAGACACAACT: the ligation selection enrichment is 0.29 ± 0.03.

For GAGACCGCAACTGAAAAGTTGTGGCGCATATAGTGAGTCGCTGCCTGCAAAGACACAACT, the ligation selection enrichment amounted to 3.7 ± 0.39. For GAGACCGCAACTGAAAAGTTGTGGGGAGCATAGTGAGTCGCTGCCTGCAAAGACACAACT, the ligation selection enrichment was determined as 0.135 ± 0.022. As for GAGACCGCAACTGAAAAGTTGTGGGGAGGATAGTGAGTCGCTGCCTGCAAAGACACAACT, the ligation selection enrichment was determined as 0.371 ± 0.084. Consider GAGACCGCAACTGAAAAGTTGTGGGGAGTATAGTGAGTCGCTGCCTGCAAAGACACAACT, for which the ligation selection enrichment was 0.165 ± 0.0095. GAGACCGCAACTGAAAAGTTGTGGGGCTGATAGTGAGTCGCTGCCTGCAAAGACACAACT: the ligation selection enrichment is 0.393 ± 0.032. Turning to GAGACCGCAACTGAAAAGTTGTGGGGCTCATAGTGAGTCGCTGCCTGCAAAGACACAACT, the ligation selection enrichment amounted to 0.149 ± 0.0062. On to GAGACCGCAACTGAAAAGTTGTGGGGCTAATAGTGAGTCGCTGCCTGCAAAGACACAACT, for which the ligation selection enrichment is 0.228 ± 0.037.

Take GAGACCGCAACTGAAAAGTTGTGGTGCTCATAGTGAGTCGCTGCCTGCAAAGACACAACT: the ligation selection enrichment was found to be 0.117 ± 0.022. For GAGACCGCAACTGAAAAGTTGTGGTGCTAATAGTGAGTCGCTGCCTGCAAAGACACAACT, the ligation selection enrichment was 0.17 ± 0.012. Take GAGACCGCAACTGAAAAGTTGTGGTGCTGATAGTGAGTCGCTGCCTGCAAAGACACAACT: the ligation selection enrichment came out at 0.17 ± 0.017.

As for GAGACCGCAACTGAAAAGTTGTGGTGCTTATAGTGAGTCGCTGCCTGCAAAGACACAACT, the ligation selection enrichment was 0.0805 ± 0.021.

With GAGACCGCAACTGAAAAGTTGTGGCGCGGATAGTGAGTCGCTGCCTGCAAAGACACAACT, the ligation selection enrichment was 0.533 ± 0.12. On to GAGACCGCAACTGAAAAGTTGTGGCGCGAATAGTGAGTCGCTGCCTGCAAAGACACAACT, for which the ligation selection enrichment is 1.1 ± 0.18.

GAGACCGCAACTGAAAAGTTGTGGCGCGCATAGTGAGTCGCTGCCTGCAAAGACACAACT: the ligation selection enrichment was 0.223 ± 0.025.

On to GAGACCGCAACTGAAAAGTTGTGGCGCGTATAGTGAGTCGCTGCCTGCAAAGACACAACT, for which the ligation selection enrichment was 0.237 ± 0.0082. As for GAGACCGCAACTGAAAAGTTGTGGAGCCCATAGTGAGTCGCTGCCTGCAAAGACACAACT, the ligation selection enrichment came out at 0.167 ± 0.05. In the case of GAGACCGCAACTGAAAAGTTGTGGAGCCTATAGTGAGTCGCTGCCTGCAAAGACACAACT, the ligation selection enrichment turned out to be 0.307 ± 0.093. As to GAGACCGCAACTGAAAAGTTGTGGAGCCGATAGTGAGTCGCTGCCTGCAAAGACACAACT, the ligation selection enrichment was determined as 0.709 ± 0.025. Under GAGACCGCAACTGAAAAGTTGTGGAGCCAATAGTGAGTCGCTGCCTGCAAAGACACAACT stands 0.161 ± 0.018; under GAGACCGCAACTGAAAAGTTGTGGAGCAGATAGTGAGTCGCTGCCTGCAAAGACACAACT, 0.325 ± 0.015.

For the variant GAGACCGCAACTGAAAAGTTGTGGAGCATATAGTGAGTCGCTGCCTGCAAAGACACAACT, the ligation selection enrichment turned out to be 3.55 ± 0.68.

Take GAGACCGCAACTGAAAAGTTGTGGAGCACATAGTGAGTCGCTGCCTGCAAAGACACAACT: the ligation selection enrichment turned out to be 0.319 ± 0.037. As to GAGACCGCAACTGAAAAGTTGTGGAGCAAATAGTGAGTCGCTGCCTGCAAAGACACAACT, the ligation selection enrichment was found to be 0.342 ± 0.056.
